Laboratory results taken from US20080306007A1, “AGENTS FOR PROPHYLAXIS OR TREATMENT OF NEUROLOGICAL RELATED DISEASES AND CONDITIONS” (Newcastle Innovation Limited, priority 2007, published 2008).
One block for each substance: values may come before it.

Columns and labels:
[1] = biological target: amphiphysin I (native, from rat brain lysate) (rat) (UniProt O08838); assay: peptide competition in GST-DynI-PRD pull-down from rat brain lysate; the filing later calls this an experimental artefact
[2] = biological target: dynamin I (native, from rat brain synaptosomes; total pool) (rat) (UniProt P21575); assay: sequential GST pull-downs from synaptosome lysate; molar ratio GST-AmphI-SH3:dynamin above 2:1
Sequence of dynamin I (native, from rat brain synaptosomes; total pool) (rat) (P21575 whole entry): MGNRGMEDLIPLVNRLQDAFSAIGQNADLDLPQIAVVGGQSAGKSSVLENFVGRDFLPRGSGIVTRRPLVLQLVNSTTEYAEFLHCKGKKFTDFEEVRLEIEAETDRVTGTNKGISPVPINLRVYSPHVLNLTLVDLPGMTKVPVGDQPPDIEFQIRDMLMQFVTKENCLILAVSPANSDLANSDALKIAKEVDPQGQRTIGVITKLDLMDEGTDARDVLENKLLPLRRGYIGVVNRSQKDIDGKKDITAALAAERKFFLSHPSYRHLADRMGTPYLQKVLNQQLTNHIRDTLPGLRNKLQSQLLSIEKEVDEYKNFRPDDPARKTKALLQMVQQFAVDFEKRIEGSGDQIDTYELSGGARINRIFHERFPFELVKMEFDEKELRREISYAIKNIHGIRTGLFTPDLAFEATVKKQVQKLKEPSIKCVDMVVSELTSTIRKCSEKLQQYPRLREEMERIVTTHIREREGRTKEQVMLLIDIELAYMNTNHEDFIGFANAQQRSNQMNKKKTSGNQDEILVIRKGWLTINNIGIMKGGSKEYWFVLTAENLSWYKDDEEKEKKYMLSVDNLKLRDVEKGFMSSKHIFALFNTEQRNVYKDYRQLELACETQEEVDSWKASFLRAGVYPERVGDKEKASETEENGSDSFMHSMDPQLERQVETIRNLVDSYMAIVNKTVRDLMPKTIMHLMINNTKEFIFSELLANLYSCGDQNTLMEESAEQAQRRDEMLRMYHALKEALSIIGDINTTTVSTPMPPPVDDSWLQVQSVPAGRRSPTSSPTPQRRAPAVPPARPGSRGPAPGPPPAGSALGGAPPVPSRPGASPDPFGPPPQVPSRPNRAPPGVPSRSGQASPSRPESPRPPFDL

[3] = biological target: dynamin I (native, from rat brain synaptosomes; total pool) (rat) (UniProt P21575); assay: GST pull-down from synaptosome lysate without salt
[4] = biological target: phospho-dynamin I (native, phosphorylated in vivo, from rat brain synaptosomes) (rat) (UniProt P21575); assay: GST pull-down from 32Pi-labelled synaptosome lysate, 150 mM NaCl, quantitative analysis of autoradiograph against protein
Sequence of phospho-dynamin I (native, phosphorylated in vivo, from rat brain synaptosomes) (rat) (P21575 whole entry): as above

Sequence of GST-EndoI-SH3 (O35179 290-349): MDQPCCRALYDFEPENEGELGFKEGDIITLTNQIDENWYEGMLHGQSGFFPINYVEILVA
Sequence of amphiphysin I (native, from rat brain lysate) (rat) (O08838 whole entry): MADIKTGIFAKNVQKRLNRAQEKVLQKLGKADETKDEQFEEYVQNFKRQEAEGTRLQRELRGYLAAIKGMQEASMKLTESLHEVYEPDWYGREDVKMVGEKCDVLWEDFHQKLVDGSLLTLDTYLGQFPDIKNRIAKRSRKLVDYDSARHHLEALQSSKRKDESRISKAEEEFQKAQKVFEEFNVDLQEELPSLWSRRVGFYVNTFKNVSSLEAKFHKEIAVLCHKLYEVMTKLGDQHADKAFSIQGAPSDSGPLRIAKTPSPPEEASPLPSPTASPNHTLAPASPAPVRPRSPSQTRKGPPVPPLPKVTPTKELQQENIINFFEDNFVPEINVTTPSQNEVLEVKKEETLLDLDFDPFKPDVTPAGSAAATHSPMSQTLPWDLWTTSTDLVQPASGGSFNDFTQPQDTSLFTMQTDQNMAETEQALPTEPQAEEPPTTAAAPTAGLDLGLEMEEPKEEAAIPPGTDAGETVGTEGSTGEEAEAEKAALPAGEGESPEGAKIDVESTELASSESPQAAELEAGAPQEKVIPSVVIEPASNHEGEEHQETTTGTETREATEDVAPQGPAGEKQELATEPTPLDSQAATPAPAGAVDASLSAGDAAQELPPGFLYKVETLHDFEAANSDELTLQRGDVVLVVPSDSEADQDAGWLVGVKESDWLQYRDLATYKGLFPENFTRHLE

fold higher peptide concentration needed for inhibition [1]: 10 fold
Substance: DynI783-796 peptide

residual dynamin recovered in a second sequential pull-down [2]: < 1%
Substance: GST-AmphI-SH3

percent of synaptosomal dynamin I extracted [3]: > 95%
Substance: GST-EndoI-SH3

binding to phospho-dynamin I relative to the total dynamin I bound to the beads (% of AmphI-SH3 control) [4]: 91
Substance: full-length GST-fusion protein of endophilin I (EndoI-FL)

binding to phospho-dynamin I relative to the total dynamin I bound to the beads (% of AmphI-SH3 control) [4]: 56
Substance: full-length GST-fusion protein of syndapin I (SdpnI-FL)
